The target in assay [1] is CHIKV virus-like particles (strain 37997), produced from C-E3-E2-6K-E1 (chikungunya virus strain 37997). Briefly: cryo-EM structure.
Assay [2] has as its target infectious CHIKV particles (strain 181/25) (chikungunya virus strain 181/25). Briefly: cryo-EM structure.
The target in assay [3] is CHIKV virus-like particles (strain 37997), produced from C-E3-E2-6K-E1 (chikungunya virus strain 37997). Kind of assay: SPR.

As for “mammalian cell-generated murine Mxra8 (residues 23-336), cleaved from Mxra8-HRV-Fc (from UniProt Q9DBV4 23-336) (domain or fragment)”, in assay [1], the stoichiometry N (Mxra8 molecules per virion) was determined as 240. The stoichiometry N (Mxra8 proteins per particle) in assay [2] turned out to be 60.
In assay [3], “recombinant murine Mxra8 (soluble; preparation not stated for this experiment) (from UniProt Q9DBV4 20-340) (domain or fragment)” displayed a KD, high affinity site (kinetically derived, two-site model) of 84 nM and a KD, lower affinity sites (kinetically derived, two-site model) of 270 nM.

(Values after PMC7227486.)
